According to US20110076234A1 (MOLMED, published 2011):
*1 amine or outer side, *2 acyl side, *3 side chain or, on linkers, in order; H or OH if unused. Where no end group is shown, it is not given here. [ ]: non-standard residue; d: D form. βAsp = O=C(O)[C@H](CC(=O)[*:2])N[*:1]

Molecular target: T1, Human αvβ3 integrin (purified) (human, UniProt P06756 31-1048; P05106 27-788)
T1 construct: Bought purified integrin, adsorbed on microtiter plates (0.5-2 µg/ml in DPBS with Ca2+ and Mg2+); also called avβ3; vitronectin receptor
Assay: competitive ELISA on αvβ3-coated plates with biotinylated NGR-TNF as labelled ligand (legend of FIG. 7)

T1 sequence (P06756 31-1048, form in doubt, chain 1 of 2): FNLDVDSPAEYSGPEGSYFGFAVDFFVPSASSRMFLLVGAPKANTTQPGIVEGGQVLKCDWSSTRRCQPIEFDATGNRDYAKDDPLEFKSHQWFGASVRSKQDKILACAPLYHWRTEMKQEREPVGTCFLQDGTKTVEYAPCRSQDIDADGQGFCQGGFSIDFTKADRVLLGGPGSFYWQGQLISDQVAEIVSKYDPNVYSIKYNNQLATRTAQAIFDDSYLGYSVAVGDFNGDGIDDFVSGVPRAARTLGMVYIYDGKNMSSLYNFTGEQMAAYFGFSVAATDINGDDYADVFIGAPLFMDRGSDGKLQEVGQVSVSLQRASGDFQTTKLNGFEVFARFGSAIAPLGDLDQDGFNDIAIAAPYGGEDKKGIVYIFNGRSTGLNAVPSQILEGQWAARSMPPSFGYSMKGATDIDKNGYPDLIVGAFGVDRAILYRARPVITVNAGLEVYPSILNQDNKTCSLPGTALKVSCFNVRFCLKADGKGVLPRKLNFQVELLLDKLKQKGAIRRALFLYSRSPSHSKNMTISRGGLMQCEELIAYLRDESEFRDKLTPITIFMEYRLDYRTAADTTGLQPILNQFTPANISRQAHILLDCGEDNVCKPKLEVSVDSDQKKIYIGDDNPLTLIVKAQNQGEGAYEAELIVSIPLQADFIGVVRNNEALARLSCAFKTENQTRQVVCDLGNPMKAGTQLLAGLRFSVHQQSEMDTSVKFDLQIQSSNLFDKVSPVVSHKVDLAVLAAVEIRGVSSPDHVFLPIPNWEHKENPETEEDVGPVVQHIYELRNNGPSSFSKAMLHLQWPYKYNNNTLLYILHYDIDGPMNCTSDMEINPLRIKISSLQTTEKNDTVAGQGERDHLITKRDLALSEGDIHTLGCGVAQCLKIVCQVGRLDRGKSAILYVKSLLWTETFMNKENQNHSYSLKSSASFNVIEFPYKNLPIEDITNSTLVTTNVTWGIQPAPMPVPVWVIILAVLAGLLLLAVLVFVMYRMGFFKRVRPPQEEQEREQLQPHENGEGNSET
T1 sequence (P05106 27-788, form in doubt, chain 2 of 2): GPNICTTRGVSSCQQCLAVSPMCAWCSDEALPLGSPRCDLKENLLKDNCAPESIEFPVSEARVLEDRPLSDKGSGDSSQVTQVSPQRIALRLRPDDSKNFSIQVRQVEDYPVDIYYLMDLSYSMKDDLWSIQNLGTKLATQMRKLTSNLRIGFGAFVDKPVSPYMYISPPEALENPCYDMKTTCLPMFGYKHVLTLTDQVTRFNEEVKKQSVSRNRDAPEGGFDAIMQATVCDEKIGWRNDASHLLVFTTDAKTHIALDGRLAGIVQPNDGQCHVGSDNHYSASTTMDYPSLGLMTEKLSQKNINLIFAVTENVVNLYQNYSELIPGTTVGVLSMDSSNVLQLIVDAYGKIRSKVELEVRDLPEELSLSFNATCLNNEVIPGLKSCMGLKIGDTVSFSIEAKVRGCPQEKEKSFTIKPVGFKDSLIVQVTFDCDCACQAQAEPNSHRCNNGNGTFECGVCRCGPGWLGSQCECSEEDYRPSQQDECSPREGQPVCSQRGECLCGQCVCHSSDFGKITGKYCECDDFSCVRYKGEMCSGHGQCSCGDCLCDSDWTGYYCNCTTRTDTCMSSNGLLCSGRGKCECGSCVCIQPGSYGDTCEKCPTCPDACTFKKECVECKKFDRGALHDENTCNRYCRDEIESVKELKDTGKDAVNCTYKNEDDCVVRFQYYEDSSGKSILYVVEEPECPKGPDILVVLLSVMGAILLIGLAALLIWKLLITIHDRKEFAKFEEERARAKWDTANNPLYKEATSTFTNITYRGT

Row | EC50 [nM] | Binder
1 | 100 | C[dD]GRCGVRY (cysteine pairing not given here) [D-DGR-pep (sequence of NGR-pep with D-D in place of N)]
2 | 100 | C[βAsp]GRCGVRY (cysteine pairing not given here) [isoDGR-pep (sequence of NGR-pep with L-isoD in place of N)]
